Target: purified full-length Polθ (UniProt O75417 1-2590)
Experiment: co-IP

Chain of purified full-length Polθ (O75417 whole entry): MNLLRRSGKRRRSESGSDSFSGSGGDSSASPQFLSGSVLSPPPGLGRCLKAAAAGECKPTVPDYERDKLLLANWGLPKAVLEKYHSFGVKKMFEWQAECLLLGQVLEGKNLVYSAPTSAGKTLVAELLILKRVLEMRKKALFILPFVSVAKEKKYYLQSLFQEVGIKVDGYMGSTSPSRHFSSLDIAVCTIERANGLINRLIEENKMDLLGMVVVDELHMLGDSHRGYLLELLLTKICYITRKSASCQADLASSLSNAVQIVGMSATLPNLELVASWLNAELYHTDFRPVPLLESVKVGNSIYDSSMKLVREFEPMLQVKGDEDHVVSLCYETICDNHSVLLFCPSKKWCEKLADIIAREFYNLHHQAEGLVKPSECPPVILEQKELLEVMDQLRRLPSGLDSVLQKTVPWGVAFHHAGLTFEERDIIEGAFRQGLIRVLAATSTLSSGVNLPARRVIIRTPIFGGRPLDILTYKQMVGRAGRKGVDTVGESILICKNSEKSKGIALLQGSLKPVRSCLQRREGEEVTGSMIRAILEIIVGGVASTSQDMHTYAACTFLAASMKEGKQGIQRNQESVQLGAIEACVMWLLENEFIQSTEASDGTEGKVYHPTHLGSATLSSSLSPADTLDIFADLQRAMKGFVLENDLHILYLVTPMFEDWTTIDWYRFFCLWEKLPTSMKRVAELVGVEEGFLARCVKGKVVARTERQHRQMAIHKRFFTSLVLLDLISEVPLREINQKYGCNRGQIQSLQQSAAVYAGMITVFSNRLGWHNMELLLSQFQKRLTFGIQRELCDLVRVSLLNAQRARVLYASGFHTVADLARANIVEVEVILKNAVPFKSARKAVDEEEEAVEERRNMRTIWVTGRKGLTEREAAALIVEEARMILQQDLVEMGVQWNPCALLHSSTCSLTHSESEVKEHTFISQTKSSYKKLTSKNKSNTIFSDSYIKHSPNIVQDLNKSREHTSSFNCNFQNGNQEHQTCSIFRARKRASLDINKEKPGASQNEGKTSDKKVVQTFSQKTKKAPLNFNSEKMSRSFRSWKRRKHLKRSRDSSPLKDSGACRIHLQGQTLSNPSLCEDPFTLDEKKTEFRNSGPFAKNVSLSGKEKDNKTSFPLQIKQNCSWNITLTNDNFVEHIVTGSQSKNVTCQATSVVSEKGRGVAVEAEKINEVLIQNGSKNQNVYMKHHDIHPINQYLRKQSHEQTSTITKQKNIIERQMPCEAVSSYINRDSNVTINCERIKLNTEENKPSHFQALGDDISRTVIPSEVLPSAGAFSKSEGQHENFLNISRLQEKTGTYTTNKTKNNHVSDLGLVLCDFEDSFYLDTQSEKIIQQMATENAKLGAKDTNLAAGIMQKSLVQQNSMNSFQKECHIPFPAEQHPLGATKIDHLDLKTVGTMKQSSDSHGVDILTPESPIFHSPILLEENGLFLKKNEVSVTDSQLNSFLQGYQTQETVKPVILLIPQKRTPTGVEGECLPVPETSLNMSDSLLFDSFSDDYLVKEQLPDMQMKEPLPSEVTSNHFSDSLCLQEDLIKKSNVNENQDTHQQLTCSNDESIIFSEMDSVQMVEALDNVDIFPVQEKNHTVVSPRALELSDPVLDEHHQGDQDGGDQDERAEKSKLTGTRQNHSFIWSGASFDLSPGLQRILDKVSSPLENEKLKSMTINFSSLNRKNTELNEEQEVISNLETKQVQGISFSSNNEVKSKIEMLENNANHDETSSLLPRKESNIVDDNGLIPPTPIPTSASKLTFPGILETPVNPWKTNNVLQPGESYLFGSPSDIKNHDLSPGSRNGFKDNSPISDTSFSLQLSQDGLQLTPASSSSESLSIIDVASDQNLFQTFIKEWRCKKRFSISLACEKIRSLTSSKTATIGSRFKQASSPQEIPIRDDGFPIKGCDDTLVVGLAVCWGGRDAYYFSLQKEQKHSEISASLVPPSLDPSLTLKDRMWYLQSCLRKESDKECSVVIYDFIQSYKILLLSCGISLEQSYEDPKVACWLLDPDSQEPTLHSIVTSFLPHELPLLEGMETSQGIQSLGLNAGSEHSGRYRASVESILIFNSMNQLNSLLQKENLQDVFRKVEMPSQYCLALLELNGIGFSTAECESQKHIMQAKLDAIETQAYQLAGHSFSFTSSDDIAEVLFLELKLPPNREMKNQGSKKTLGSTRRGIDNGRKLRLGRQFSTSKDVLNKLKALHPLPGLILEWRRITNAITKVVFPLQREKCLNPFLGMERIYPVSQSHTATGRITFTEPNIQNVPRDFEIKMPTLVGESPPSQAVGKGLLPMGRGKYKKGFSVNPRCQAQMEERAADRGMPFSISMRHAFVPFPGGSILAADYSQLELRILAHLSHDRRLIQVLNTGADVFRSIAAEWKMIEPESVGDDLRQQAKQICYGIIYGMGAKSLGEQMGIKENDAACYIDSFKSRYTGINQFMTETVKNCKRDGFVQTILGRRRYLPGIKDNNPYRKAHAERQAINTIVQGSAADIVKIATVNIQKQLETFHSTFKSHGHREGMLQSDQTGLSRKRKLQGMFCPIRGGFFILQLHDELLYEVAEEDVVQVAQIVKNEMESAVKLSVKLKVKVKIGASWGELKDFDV

B1: purified recombinant human RHINO protein (natural protein, UniProt Q9BSD3 1-238, looked up)
chain: MPPRKKRRQPSQKAPLLFHQQPLEGPKHSCASTQLPITHTRQVPSKPIDHSTITSWVSPDFDTAAGSLFPAYQKHQNRARHSSRKPTTSKFPHLTFESPQSSSSETLGIPLIRECPSESEKDVSRRPLVPVLSPQSCGNMSVQALQSLPYVFIPPDIQTPESSSVKEELIPQDQKENSLLSCTLHTGTPNSPEPGPVLVKDTPEDKYGIKVTWRRRQHLLAYLRERGKLSRSQFLVKS
- binding result: binds
